Reference: patent US20220033438A1 (GENOIMMUNE THERAPEUTICS, published 2022)

B1: KLMGIVYKV polypeptide (SEQ ID NO: 2) (peptide)
peptide: KLMGIVYKV
notes: Synthetic 9-mer made by solid phase synthesis; It is the fragment of the mutated (N136Y) Twist neighbor protein; also called mutated polypeptide
B2: KLMGIVYKL polypeptide (SEQ ID NO: 4) (peptide)
peptide: KLMGIVYKL
notes: Synthetic 9-mer; also called mutated polypeptide
B3: KMMGIVYKL polypeptide (SEQ ID NO: 5) (peptide)
peptide: KMMGIVYKL
notes: as for B2

Biological target: T1, HLA-A0201 on T2 cells (human)
T1 construct: MHC class I molecule on TAP-deficient T2 cells; also called HLA-A0201 antigen
Assay: T2 cell affinity test, 100 uM peptide, flow cytometry; FI=(MFI sample-MFI background)/MFI background
Experimental: (§1) 2 duplicate wells per group were used. […] The cells were collected by centrifugation at 200 g for 5 minutes. […] The mean fluorescence intensity (MFI) was then detected and analyzed by flow cytometry (BD FACSJazz™) and its software, as shown in FIG. 1.

Row | FI (fluorescence index) | Binder
1 | 1.89 | KLMGIVNKV [wild-type polypeptide KLMGIVNKV (SEQ ID NO: 6)]
2 | 1.97 | B1
3 | 2.23 | B2
4 | 2.09 | B3

Biological target: T1, HLA-A0201 on T2 cells
Assay: T2 cell affinity test, 100 uM peptide overnight with human b2m, anti-HLA-A0201 FITC staining, flow cytometry
Experimental: as §1

Row | MFI | Binder
5 | 648 | KLMGIVNKV [wild-type polypeptide KLMGIVNKV (SEQ ID NO: 6)]
6 | 666 | B1
7 | 724 | B2
8 | 692 | B3
